This data set concerns the molecule itself. Kind of data set: SEC + other: gel electrophoresis without reducing agents; purified fragment in solution; molecular weight markers during FPLC elution (Superdex 200) and gel electrophoresis performed without reducing agents.

Data on one protein can be found in article PMC6378327, “Modes of Accessing Bicarbonate for the Regulation of Membrane Guanylate Cyclase (ROS-GC) in Retinal Rods and Cones” (eNeuro, 2019).

B1: core catalytic domain fragment of bovine ROS-GC1 (G817-Y965) (domain or fragment)
chain: not shown
notes: bovine ROS-GC1 (retinal membrane guanylate cyclase 1), core catalytic domain, G817-Y965; numbers count on: the mature protein (according to Goraczniak et al., 1994); Cloned into the BglII/NcoI site of pET30Xa/LIC (Novagen); Residue numbers are on the mature protein, so they are shifted by the length of the signal peptide relative to the precursor entry; also called ROS-GC1 fragment; soluble …
For B1, the “stoichiometry N” value turned out to be 2.
